We go through 125 sequences from the supplement of paper PMC9112550, “Optimization of the antimicrobial peptide Bac7 by deep mutational scanning” (BMC Biology, 2022).

This data set has as its system Escherichia coli TOP10. Put plainly: shrunken log2 fold change of peptide-encoding DNA abundance (4.5 h post-induction vs induction); higher = less antimicrobial activity (less host growth inhibition). As to conditions: time post-induction: 4.5 h; library: site-saturation at positions 5, 18, 19, 20.
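Also: peptides expressed intracellularly from a pBAD plasmid library in pooled LB shake-flask culture, induced with 0.3% L-arabinose, DNA abundance read by NGS, three biological replicates, DESeq2 with apeglm shrinkage.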

As to RRIRCRPPRLPRPRPRPAETPRP, the “shrunken log2 fold change” value was -0.035.

Take RRIRHRPPRLPRPRPRPCMVPRP: the “shrunken log2 fold change” value was -0.342. For RRIRYRPPRLPRPRPRPNPMPRP the value was -0.788; for RRIRERPPRLPRPRPRPHWIPRP, -0.117; for RRIRYRPPRLPRPRPRPNNQPRP, -1.05. RRIRVRPPRLPRPRPRPHCPPRP: the “shrunken log2 fold change” value was -0.173. For RRIRCRPPRLPRPRPRPQCKPRP the value was -0.619; for RRIRDRPPRLPRPRPRPWDSPRP, -0.000687. In the case of RRIRTRPPRLPRPRPRPYHNPRP it was -0.941; in that of RRIRIRPPRLPRPRPRPMPAPRP, 0.0451; in that of RRIRIRPPRLPRPRPRPCYFPRP, -0.906. Regarding RRIRKRPPRLPRPRPRPYLAPRP, the “shrunken log2 fold change” value is -0.295. In the case of RRIRNRPPRLPRPRPRPYNMPRP it was -0.0281; in that of RRIRKRPPRLPRPRPRPLKYPRP, 0.072. For RRIRSRPPRLPRPRPRPTCWPRP the value was 1.09; for RRIRERPPRLPRPRPRPLISPRP, -0.0142.

RRIRCRPPRLPRPRPRPKYWPRP: the “shrunken log2 fold change” value was found to be 0.22.

Turning to RRIRVRPPRLPRPRPRPNVTPRP, the “shrunken log2 fold change” value was -0.554. RRIRDRPPRLPRPRPRPKVGPRP: the “shrunken log2 fold change” value was -0.017.

For the sequence RRIRKRPPRLPRPRPRPTDGPRP, the “shrunken log2 fold change” value amounted to 0.396.

For RRIRDRPPRLPRPRPRPRFKPRP, the “shrunken log2 fold change” value is -0.0405.

Consider RRIRARPPRLPRPRPRPPSGPRP, for which the “shrunken log2 fold change” value is 0.597.

With RRIRMRPPRLPRPRPRPCRYPRP, the “shrunken log2 fold change” value was 0.11. For RRIRKRPPRLPRPRPRPYPFPRP the value was 0.00884; for RRIRNRPPRLPRPRPRPFYEPRP, -0.233.

As to RRIRPRPPRLPRPRPRPDKNPRP, the “shrunken log2 fold change” value is -0.308.

For the sequence RRIRMRPPRLPRPRPRPLCIPRP, the “shrunken log2 fold change” value amounted to 0.21.

RRIRDRPPRLPRPRPRPWCRPRP: the “shrunken log2 fold change” value amounted to 0.0772. Regarding RRIRRRPPRLPRPRPRPPSRPRP, the “shrunken log2 fold change” value is 0.446. In the case of RRIRMRPPRLPRPRPRPEYVPRP it was 0.16. For RRIRCRPPRLPRPRPRPIDFPRP the value was -0.458; for RRIRVRPPRLPRPRPRPFDHPRP, -0.557; for RRIRVRPPRLPRPRPRPQVPPRP, -0.205.

As for RRIRFRPPRLPRPRPRPPLAPRP, the “shrunken log2 fold change” value came out at 0.628.

With RRIRTRPPRLPRPRPRPTYQPRP, the “shrunken log2 fold change” value is -0.206.

For the sequence RRIRRRPPRLPRPRPRPPNMPRP, the “shrunken log2 fold change” value was found to be 0.402.

For RRIRLRPPRLPRPRPRPDLPPRP, the “shrunken log2 fold change” value was -0.0128.

Turning to RRIRYRPPRLPRPRPRPINIPRP, the “shrunken log2 fold change” value is -1.21. In the case of RRIRKRPPRLPRPRPRPTQVPRP it was 0.312.

Turning to RRIRDRPPRLPRPRPRPESQPRP, the “shrunken log2 fold change” value was -0.0206. Consider RRIRYRPPRLPRPRPRPWVCPRP, for which the “shrunken log2 fold change” value is -0.0275. Consider RRIRWRPPRLPRPRPRPCMKPRP, for which the “shrunken log2 fold change” value is 0.00396. Regarding RRIRHRPPRLPRPRPRPGTNPRP, the “shrunken log2 fold change” value was -0.212. Consider RRIRLRPPRLPRPRPRPWDCPRP, for which the “shrunken log2 fold change” value is -0.0998. Turning to RRIRKRPPRLPRPRPRPHLSPRP, the “shrunken log2 fold change” value was 0.0468.

On to RRIRKRPPRLPRPRPRPSHWPRP, for which the “shrunken log2 fold change” value was determined as 0.275. For the sequence RRIRERPPRLPRPRPRPTTWPRP, the “shrunken log2 fold change” value came out at 0.0447. Regarding RRIRHRPPRLPRPRPRPENWPRP, the “shrunken log2 fold change” value came out at 0.147. For RRIRMRPPRLPRPRPRPGYVPRP the value was -0.118; for RRIRYRPPRLPRPRPRPKYHPRP, -2.19.

As to RRIRVRPPRLPRPRPRPVVCPRP, the “shrunken log2 fold change” value was 0.251. Take RRIRWRPPRLPRPRPRPDDVPRP: the “shrunken log2 fold change” value was 0.0399.

RRIRDRPPRLPRPRPRPSRRPRP: the “shrunken log2 fold change” value came out at 0.146.

For the sequence RRIRQRPPRLPRPRPRPWPRPRP, the “shrunken log2 fold change” value came out at 0.014. For RRIRFRPPRLPRPRPRPWEQPRP the value was -0.00193.

As to RRIRYRPPRLPRPRPRPHIHPRP, the “shrunken log2 fold change” value was -0.745. Take RRIRIRPPRLPRPRPRPLVEPRP: the “shrunken log2 fold change” value is -0.0936.

Consider RRIRARPPRLPRPRPRPRIYPRP, for which the “shrunken log2 fold change” value is -0.0488. In the case of RRIRTRPPRLPRPRPRPSINPRP it was -0.63; in that of RRIRSRPPRLPRPRPRPGYEPRP, -0.157; in that of RRIRRRPPRLPRPRPRPTDKPRP, 0.0418. Turning to RRIRLRPPRLPRPRPRPMHTPRP, the “shrunken log2 fold change” value is 0.25.

Consider RRIRERPPRLPRPRPRPYGDPRP, for which the “shrunken log2 fold change” value is -0.218. RRIRTRPPRLPRPRPRPTQCPRP: the “shrunken log2 fold change” value came to 0.227.

For the sequence RRIRRRPPRLPRPRPRPQCWPRP, the “shrunken log2 fold change” value stood at 0.557. For the sequence RRIRSRPPRLPRPRPRPGNNPRP, the “shrunken log2 fold change” value is -0.354. For RRIRHRPPRLPRPRPRPMCKPRP the value was -0.151. Turning to RRIRVRPPRLPRPRPRPLMIPRP, the “shrunken log2 fold change” value is -0.361. In the case of RRIRRRPPRLPRPRPRPMSKPRP it was 0.404.

Take RRIRGRPPRLPRPRPRPQDNPRP: the “shrunken log2 fold change” value stood at 0.0555.

For RRIRSRPPRLPRPRPRPNAYPRP, the “shrunken log2 fold change” value is -0.696. On to RRIRWRPPRLPRPRPRPRHAPRP, for which the “shrunken log2 fold change” value stood at 0.0251.

Take RRIRVRPPRLPRPRPRPVHMPRP: the “shrunken log2 fold change” value was -0.0089. Regarding RRIRFRPPRLPRPRPRPQIPPRP, the “shrunken log2 fold change” value was -0.475. In the case of RRIRHRPPRLPRPRPRPIWDPRP, the “shrunken log2 fold change” value was -0.00794. In the case of RRIRERPPRLPRPRPRPHKMPRP it was -0.701; in that of RRIRGRPPRLPRPRPRPAECPRP, 0.196; in that of RRIRRRPPRLPRPRPRPHPRPRP, 1.03. For RRIRFRPPRLPRPRPRPSKGPRP the value was -0.115. For the sequence RRIRHRPPRLPRPRPRPKSQPRP, the “shrunken log2 fold change” value is -0.149. For RRIRSRPPRLPRPRPRPINFPRP the value was -0.168; for RRIRRRPPRLPRPRPRPESTPRP, 0.571; for RRIRVRPPRLPRPRPRPDLKPRP, 0.00797. Consider RRIRQRPPRLPRPRPRPCMGPRP, for which the “shrunken log2 fold change” value was -0.124. For the sequence RRIRWRPPRLPRPRPRPNVWPRP, the “shrunken log2 fold change” value was -0.308. In the case of RRIRKRPPRLPRPRPRPWYMPRP it was -0.158; in that of RRIRARPPRLPRPRPRPSPMPRP, 0.173. In the case of RRIRQRPPRLPRPRPRPHDMPRP it was -0.364; in that of RRIRARPPRLPRPRPRPRPWPRP, 0.499.

Take RRIRSRPPRLPRPRPRPYYWPRP: the “shrunken log2 fold change” value is -0.00332. Take RRIRFRPPRLPRPRPRPKWSPRP: the “shrunken log2 fold change” value amounted to 0.321. In the case of RRIRGRPPRLPRPRPRPDWIPRP, the “shrunken log2 fold change” value came to 0.243.

In the case of RRIRHRPPRLPRPRPRPYTAPRP, the “shrunken log2 fold change” value is -0.735. With RRIRMRPPRLPRPRPRPHATPRP, the “shrunken log2 fold change” value came out at 2.78. For RRIRARPPRLPRPRPRPDGKPRP, the “shrunken log2 fold change” value was 0.154. For RRIRNRPPRLPRPRPRPFAMPRP the value was -0.177; for RRIRWRPPRLPRPRPRPDAVPRP, 0.4; for RRIRYRPPRLPRPRPRPMGCPRP, -0.0637. Consider RRIRCRPPRLPRPRPRPMIWPRP, for which the “shrunken log2 fold change” value was -0.0837. With RRIRRRPPRLPRPRPRPVSDPRP, the “shrunken log2 fold change” value was determined as 0.444. Regarding RRIRRRPPRLPRPRPRPMVRPRP, the “shrunken log2 fold change” value amounted to 0.276.

Take RRIRARPPRLPRPRPRPCLDPRP: the “shrunken log2 fold change” value came out at 0.313. RRIRQRPPRLPRPRPRPRDHPRP: the “shrunken log2 fold change” value turned out to be 0.423. In the case of RRIRYRPPRLPRPRPRPFYLPRP it was -0.955; in that of RRIRWRPPRLPRPRPRPPQSPRP, 0.128. For the sequence RRIRCRPPRLPRPRPRPTGYPRP, the “shrunken log2 fold change” value was -0.0363. For RRIRDRPPRLPRPRPRPTDMPRP the value was 0.284; for RRIRKRPPRLPRPRPRPYGTPRP, -0.272; for RRIRTRPPRLPRPRPRPWNCPRP, -0.214.

As for RRIRFRPPRLPRPRPRPPRYPRP, the “shrunken log2 fold change” value was found to be 0.246.

RRIRMRPPRLPRPRPRPDHIPRP: the “shrunken log2 fold change” value is -0.000611. For RRIRWRPPRLPRPRPRPYTPPRP the value was -0.72; for RRIRTRPPRLPRPRPRPMTDPRP, 0.0245. Consider RRIRGRPPRLPRPRPRPWSQPRP, for which the “shrunken log2 fold change” value worked out at 0.142. As to RRIRCRPPRLPRPRPRPVCHPRP, the “shrunken log2 fold change” value is -0.294.

In the case of RRIRTRPPRLPRPRPRPKIHPRP, the “shrunken log2 fold change” value is -0.427. As to RRIRCRPPRLPRPRPRPKGRPRP, the “shrunken log2 fold change” value is -0.00803. For RRIRPRPPRLPRPRPRPSVEPRP the value was -0.00032; for RRIRSRPPRLPRPRPRPTQDPRP, 0.445; for RRIRCRPPRLPRPRPRPAHNPRP, -0.151. For RRIRFRPPRLPRPRPRPRFVPRP, the “shrunken log2 fold change” value turned out to be 0.181.

For RRIRFRPPRLPRPRPRPSGPPRP, the “shrunken log2 fold change” value was 0.21.

Turning to RRIRTRPPRLPRPRPRPHEYPRP, the “shrunken log2 fold change” value is -0.17. In the case of RRIRKRPPRLPRPRPRPTESPRP it was 0.00281; in that of RRIRRRPPRLPRPRPRPHDSPRP, -0.0547.
